ELISA_avg data for 39 molecules are collected here from US20250026849A1 (ARCELLX, published 2025).

Residue numbers refer to the chain shown, from its start.

Sequences and labels used below:
B1: D-domain SEQ ID NO: 82 (designed binder)
chain: MGSWTEFASRLVAIRQRLQALGGSEAELAAFEKEIAAFESELQAYKGKGNPEVEELRYSAAIIRVMLQAYRHN
B2: D-domain SEQ ID NO: 99 (designed binder)
chain: B1 chain with A8R, S9D, V12G, R15Y, Q16H, Q19D, S59Q, M66Y
B3: D-domain SEQ ID NO: 205 (designed binder)
chain: MGSWTEFWVRLNAIRDRLEALGGSEAELAAFEKEIAAFESELQAYKGKGNPEVEDLRHTAAIIRNYLQAYRHN
B4: D-domain SEQ ID NO: 208 (designed binder)
chain: MGSWSEFWERLEAIYDRLYALGGSEAELAAFEKEIAAFESELQAYKGKGNPEVEELRRTAATIRSFLQAYRHN
B5: D-domain SEQ ID NO: 86 (designed binder)
chain: B1 chain with T5V, A8E, S9Y, R15F, Q16D, S59Q, I62L
B6: D-domain SEQ ID NO: 88 (designed binder)
chain: MGSWYEFSMRLSAIWERLHALGGSEAELAAFEKEIAAFESELQAYKGKGNPEVEELRYQAALIRFYLQAYRHN
B7: D-domain SEQ ID NO: 101 (designed binder)
chain: MGSWVEFYDRLEAIRYRLSALGGSEAELAAFEKEIAAFESELQAYKGKGNPEVEELRYIAAVIRYRLQAYRHN
B8: D-domain SEQ ID NO: 95 (designed binder)
chain: MGSWSEFYDRLKAIADRLHALGGSEAELAAFEKEIAAFESELQAYKGKGNPEVEELRTEAAIIRVYLQAYRHN
B9: D-domain SEQ ID NO: 197 (designed binder)
chain: B4 chain with E9V, E12G, Y15R, D16E, Y19D, E55K, R58Y, S65R
notes: also called bc40
B10: D-domain SEQ ID NO: 204 (designed binder)
chain: B3 chain with T5F, V9D, N12A, H58Y, T59V, I62K, N65V, Y66R
B11: D-domain SEQ ID NO: 93 (designed binder)
chain: B6 chain with Y5E, S8D, M9R, S12Y, W15A, E16R, H19E, F65V, Y66W
B12: D-domain SEQ ID NO: 84 (designed binder)
chain: B1 chain with T5V, A8H, S9N, V12S, R15S, Q16D, Q19G, I62L
B13: D-domain SEQ ID NO: 96 (designed binder)
chain: B8 chain with S5W, Y8E, K12S, A15M, D16E, T58Y, E59R
B14: D-domain SEQ ID NO: 94 (designed binder)
chain: B6 chain with Y5I, S8H, M9Q, S12E, W15V, E16T, H19E, F65V, Y66F
B15: D-domain SEQ ID NO: 202 (designed binder)
chain: B4 chain with E9D, E12T, Y15R, D16V, Y19D, E55K, R58Y, T62H, S65K
B16: D-domain SEQ ID NO: 194 (designed binder)
chain: B1 chain with T5V, A8W, S9D, V12G, Q16E, Y58A, I62A, V65I, M66A
B17: D-domain SEQ ID NO: 89 (designed binder)
chain: B6 chain with Y5T, M9Q, S12G, W15S, H19Y, Q59S, Y66M
B18: D-domain SEQ ID NO: 91 (designed binder)
chain: B1 chain with A8E, S9H, V12E, R15A, Q16G, Q19N, I62L, V65F, M66W
B19: D-domain SEQ ID NO: 100 (designed binder)
chain: B7 chain with D9H, I59V
B20: D-domain SEQ ID NO: 97 (designed binder)
chain: B8 chain with S5V, Y8E, D9E, K12A, D16T, T58W, E59R
B21: D-domain SEQ ID NO: 83 (designed binder)
chain: B1 chain with T5S, A8D, S9Q, V12A, R15Y, Q19N, I62L
B22: D-domain SEQ ID NO: 104 (designed binder)
chain: B8 chain with Y8S, K12H, A15S, H19Q, T58I, E59Q, Y66W
B23: D-domain SEQ ID NO: 87 (designed binder)
chain: B1 chain with T5V, A8Q, S9G, V12G, R15H, Q16E, I62L, M66F
B24: D-domain SEQ ID NO: 196 (designed binder)
chain: B3 chain with T5S, N12G, E19D, D55A, H58V, I62Q, N65H
B25: D-domain SEQ ID NO: 114 (designed binder)
chain: B8 chain with S5T, Y8H, D9E, K12Q, A15W, D16F, T58F, E59R, V65L
B26: D-domain SEQ ID NO: 121 (designed binder)
chain: MGSWSEFEERLAAIGSRLFALGGSEAELAAFEKEIAAFESELQAYKGKGNPEVETLRFDAALIRIYLQAYRHN
B27: D-domain SEQ ID NO: 103 (designed binder)
chain: B1 chain with T5E, A8S, S9E, V12E, R15S, Q16I, Q19R, Y58V, M66W
B28: D-domain SEQ ID NO: 112 (designed binder)
chain: B3 chain with W8H, N12S, R15W, E19V, D55E, H58F, T59H, N65I, Y66V
B29: D-domain SEQ ID NO: 207 (designed binder)
chain: B3 chain with T5V, V9N, N12G, R15Y, D55K, I62V, N65L
B30: D-domain SEQ ID NO: 92 (designed binder)
chain: B1 chain with S9N, V12E, R15N, Q16A, Q19H, Y58F, I62L, M66Y
B31: D-domain SEQ ID NO: 85 (designed binder)
chain: B1 chain with T5N, A8E, S9D, V12S, R15S, Q16A, Q19S, I62L
B32: D-domain SEQ ID NO: 193 (designed binder)
chain: B7 chain with Y8W, E12G, Y16E, S19E, E55K, I59V, Y65H
B33: D-domain SEQ ID NO: 113 (designed binder)
chain: MGSWNEFDNRLQAIWDRLHALGGSEAELAAFEKEIAAFESELQAYKGKGNPEVEELRFHAAMIRITLQAYRHN
B34: D-domain SEQ ID NO: 111 (designed binder)
chain: B33 chain with N5T, N9H, Q12G, D16E, H19V, M62I, T66F
B35: D-domain SEQ ID NO: 206 (designed binder)
chain: B4 chain with S5V, E9H, E12G, Y19E, T62L, S65Q, F66T
B36: D-domain SEQ ID NO: 120 (designed binder)
chain: B26 chain with S5H, E8Y, E9Y, A12E, G15E, S16Q, F19H
B37: D-domain SEQ ID NO: 185 (designed binder)
chain: B3 chain with T5V, V9D, N12G, D16E, E19Q, D55K, H58Y, I62A, N65H
B38: D-domain SEQ ID NO: 195 (designed binder)
chain: B4 chain with S5V, E9D, E12G, Y15R, Y19D, R58N, T62Y, S65T
B39: D-domain SEQ ID NO: 90 (designed binder)
chain: B1 chain with A8H, S9D, V12E, R15T, Q16H, Q19N, I62L, I63L, M66F

This test has as its target T1, BCMA (Homo sapiens (Human), UniProt Q02223 1-54, limits assumed).
T1 sequence: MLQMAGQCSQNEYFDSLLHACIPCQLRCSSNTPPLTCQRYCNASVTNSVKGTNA
The experiment in a line: ELISA, format not described. Also on record: unit not given here. In general terms: ELISA stands for enzyme-linked immunosorbent assay.
The molecule B1 came in with an ELISA_avg of 7.99.
As to B2, the ELISA_avg was 6.7.
Regarding B3, the ELISA_avg came out at 12.5.
B4 showed an ELISA_avg of 18.8.
Molecule B5 came in with an ELISA_avg of 7.63.
Next, B6: 7.12.
Next, B7: 5.64.
Next, B8: 8.21; B9: 7.56; B10: 12.8.
On to B11, for which the ELISA_avg turned out to be 8.85.
The molecule B12 gave an ELISA_avg of 7.36.
B13: the ELISA_avg amounted to 10.4.
B14: the ELISA_avg was 8.
Next, B15: 16.1; B16: 3.07.
Molecule B17 came in with an ELISA_avg of 4.15.
In turn, B18 had an ELISA_avg of 6.34.
Regarding B19, the ELISA_avg is 7.8.
For B20, the ELISA_avg came to 16.3.
Next, B21: 7.72.
The molecule B22 gave an ELISA_avg of 6.37.
Next, B23: 3.83; B24: 23.5; B25: 12.1.
With B26, the ELISA_avg came out at 4.85.
B27 showed an ELISA_avg of 11.3.
Molecule B28 registered an ELISA_avg of 23.6.
As for B29, the ELISA_avg worked out at 14.6.
B30 gave an ELISA_avg of 6.42.
On to B31, for which the ELISA_avg is 4.09.
In turn, B32 displayed an ELISA_avg of 4.18.
The figure for B33 is 9.87.
Regarding B34, the ELISA_avg was 9.54.
Next, B35: 19.9; B36: 3.73; B37: 5.22.
The figure for B38 is 16; for B39 it is 5.79.
